± gives the uncertainty stated by the source.
Assay: amyloid nucleation score (Sup35N fusion, yeast selection) (log enrichment); library NNK2; higher = more nucleation; inactive = no reads after selection
Summary of the method: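 The nucleation score equals the log enrichment of output over input reads from DiMSum, centred on the mode score of non-aggregating sequences. It was computed only for sequences with 100 or more input reads. The reads came from Illumina sequencing of plasmid inserts from psi-negative yeast expressing Sup35N fused to peptides of 20 random codons, induced with 100 μM copper sulfate for 24 hours and grown 7 days at 30°C without adenine and uracil.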

Row | Substance | amyloid nucleation score
1 | LVHPALVVWKQYWVVRLRDV | 6.43 ± 0.044
2 | VRNGWCTSWNSTAN | 0.974 ± 0.52
3 | RGSSLCYLRKGGFGWQGVVG | 0.733 ± 0.56
4 | LTHIKDRVELLLGGQFISDT | 0.011 ± 1.1
5 | LMILRRVVKEPESANKFCGY | inactive
6 | DVSGLNIVERGYKRCTGGND | -0.054 ± 0.62
7 | CPFSYEPNFPLIGRGNFAIW | -0.987 ± 1
8 | FMTKTPLYVKSYSFWFDLVM | 1.57 ± 0.36
9 | QCDVSRGAFEGFPYVYMEMW | -1.4 ± 0.62
10 | LNSFVPVDSRVVTSAEWYAG | 0.889 ± 0.23
11 | NSQGYFMFIKVDHS | -1.39 ± 1.1
12 | CSHITYQMCFILLNTAYFSH | -0.159 ± 1.1
13 | TVCKPIRWLNNEFCDYVSNT | -0.644 ± 0.31
14 | YVLKIGSY | -0.617 ± 0.44
15 | STVEVRGYLDAVMVGVVSNS | 3.8 ± 0.052
16 | GGDVNGVSCYGGDVGLSAKG | 0.616 ± 0.25
17 | GIWITGAWTTSLLCIRTLLG | 0.631 ± 0.43
18 | MLLLVNSRLWLASIPIKYRA | -0.332 ± 0.44
19 | VFDVHIYRPSVP | 5.96 ± 0.069
20 | KWDIIYNNDVGNLCVLVSN | -0.817 ± 1
21 | HSAYSWFLKSSNRRSWANSS | -0.666 ± 0.79
22 | LLTGQALFGRASY | 0.122 ± 0.37
23 | LGSVYRQGSEGGWATYLNTY | inactive
24 | VVVSVCSPLK | 0.258 ± 0.46
25 | RWMLIAE | 1.03 ± 0.31

Row | Substance | amyloid nucleation score
26 | LKTIMCFCQIYLFNSDPVHF | 3.37 ± 0.11
27 | FWSCVLSFVYN | 6.1 ± 0.067
28 | GFPLWSAGNCFALNAGRDAG | 0.777 ± 0.19
29 | YRSFSLCMCFYLYRSDDTLC | -1.69 ± 1.1
30 | CGMCKF | -0.487 ± 0.29
31 | RTIANDWHSCFSGRNLHSSW | 0.808 ± 0.74
32 | YKGEFFYWFKCVLYYKGNT | inactive
33 | YFVEYSW | 0.542 ± 0.47
34 | LPYRSCLWFFFDIRNDVRVG | 2.25 ± 0.12
35 | SFCGLTVILGRSSSAWGLPT | 6.959 ± 0.053
36 | AFRPVSSIGLCRWYMKRWNS | 0.542 ± 0.19
37 | TFIFWGTAELVNNNLGLRC | -0.479 ± 0.48
38 | GNAQGSTFYVVPFIQYRVFM | 6.744 ± 0.035
39 | VTDWACGMILIYVLRKILVM | 0.461 ± 0.47
40 | FGVITNSGCGRLFAEEKTRW | 1.15 ± 0.16
41 | LLMRVFRGESR | -1.02 ± 0.49
42 | QLIMS | inactive
43 | VSYFPYRDVLGTINNV | 0.729 ± 0.54
44 | MTVASCSTGCHD | 0.084 ± 0.54
45 | RERLL | -0.114 ± 0.51
46 | PSWAELRVAYLLCGSGQPG | 1.43 ± 0.19
47 | VFSFRGLFGFIPMVPYWYAI | inactive
48 | PGEGMSQEERLMLCRCVWVT | 0.874 ± 0.52
49 | ECRGCAWA | 3.95 ± 0.046
50 | FVLLFVYYFILFRLCRIQKV | inactive

Row | Substance | amyloid nucleation score
51 | TDFFCLTIFFNVEHVISKCI | 2.14 ± 0.17
52 | FLNWCISKLR | -0.735 ± 1
53 | MMDFYRLDLDRTVVVRNRYL | 0.389 ± 0.74
54 | FYSVNCFFFCHSIVILEKLF | 3.33 ± 0.15
55 | ILMMNLNAADRIVNMHMSIL | inactive
56 | LANRPCWFLQRARAMV | 0.959 ± 0.74
57 | LHLRNVMVQ | -0.681 ± 0.31
58 | VGGGTECVLSRQEFGCWLLW | 0.649 ± 0.48
59 | FAFMITPCMLTSRMFSYGHA | -0.18 ± 0.36
60 | SGVPYVNNMEASELSWGKIP | inactive
61 | DVLVINKLHLRWAGFDARGI | 5.05 ± 0.1
62 | RSVFDLMPRLYDYATNHLSY | -0.057 ± 0.34
63 | TRISMRLWFSGRELIEALKF | -0.29 ± 0.65
64 | KERELSTTECCTILCSVLFY | 6.852 ± 0.059
65 | QTNTGIVESQRSVCLNKIAR | 0.234 ± 0.17
66 | MYNQC | 0.271 ± 0.44
67 | YYCRCYSGVLVTRAYQGNPE | -0.168 ± 1.1
68 | SFSESIPIIGGLRKAVSHTS | 0.413 ± 0.24
69 | FEGTHCVSSIANVMCVRWCL | 6.43 ± 0.069
70 | VQLWYILITKMVR | -1.02 ± 1
71 | DTLFLTCPSLHH | 0.811 ± 0.58
72 | TIGGEASVPRRMPLYTLQCE | 6.03 ± 0.088
73 | VIYKSLHRLVISRVNVFFPV | -0.263 ± 0.65
74 | GLPSILVYL | -1.31 ± 0.78
75 | IIRITESASRCNTDQLFLLW | inactive

Row | Substance | amyloid nucleation score
76 | VDQRRVHLDERDY | -0.371 ± 0.63
77 | INGCNQCALP | -0.408 ± 1
78 | GGSRTRSCQDRAHCSVGGM | 0.598 ± 0.39
79 | VCLMLS | -0.573 ± 1.1
80 | VFFISEIRPKFFLTLPRTAL | 4.87 ± 0.096
81 | SRPWNYCRDLWTSVHTGLLS | 0.547 ± 0.36
82 | FWVKKLYLGIGSHVWNMGFN | inactive
83 | SKIGHD | 0.545 ± 0.57
84 | YSARRSGNFPVVRLMMNDLT | -0.153 ± 0.65
85 | SMSPGVFLISGWPMVENVVF | inactive
86 | EFCIHVSVLINPRGSNYDKW | -0.487 ± 1.1
87 | NIRNDVLNQLT | 2.11 ± 0.14
88 | CWFGCVPDLTTGLGASCGRD | 0.606 ± 0.2
89 | SDSNSCGEFARISYMGKWCE | 0.705 ± 0.8
90 | WMWDFFYTGLLMRTF | inactive
91 | RFCFVTIYSHRGVYANRMGM | 4.31 ± 0.075
92 | HYRGSENGVEPSFLYGVSLL | 0.079 ± 0.49
93 | HFTSRLKIRSTIVAVVNVSS | 3.16 ± 0.078
94 | VGTGLIIA | 1.18 ± 0.47
95 | YTWSSYD | -1.14 ± 0.36
96 | LRIVICT | -1.63 ± 0.62
97 | FGGRFIQSRVSMR | inactive
98 | TLDVIGIYLAGVGRFDGKSA | 0.261 ± 0.49
99 | LCEISRASPQGGDRDRAMGK | -0.018 ± 0.55
100 | FLRLHE | inactive

Row | Substance | amyloid nucleation score
101 | YINVALWIMSFSGSVWGKEP | 4.55 ± 0.064
102 | RWYILILGFRGKIIYPFRLG | 0.157 ± 1
103 | VPRLILSIYFIICLTTQEAV | -0.24 ± 0.65
104 | DFYACTWKDSCCGHEGRSAC | 0.634 ± 0.43
105 | AFLVYRKNNIPQYRVKVVDM | -0.225 ± 0.63
106 | KNLLVHNFACGR | 0.462 ± 0.74
107 | SISGMRWSSNHQVRSVLGAT | 1.17 ± 0.33
108 | QFIEMEKIDVVFQEYIGEEG | -0.265 ± 0.41
109 | VNSEISDYLHDGDGSRVRSI | -0.025 ± 0.79
110 | LYLVVYIVASGSYACVRRST | 0.546 ± 0.4
111 | TVHRCD | 0.627 ± 0.57
112 | NNSAECRMSIKRSACGLQIA | 0.961 ± 0.37
113 | ICAGSGFRKGRINPELRVHW | -1.24 ± 0.75
114 | HWRGFYS | -0.388 ± 1.1
115 | GRLSWFS | -0.624 ± 0.49
116 | FFDGSVNQYESRYHGCD | -0.37 ± 0.76
117 | YKVCRVFLVIYIHDFEWVVD | inactive
118 | IVMYRLRLLQDATN | 0.259 ± 0.65
119 | FYGPFV | 0.729 ± 0.23
120 | LLSECWLESGPSGASTC | 1.5 ± 0.5
121 | EYSFIHLEIKNTVLKRVLTP | 1.66 ± 0.32
122 | HIPRCINLVVRCTVKLVDGS | 2.35 ± 0.14
123 | QSHTYRL | 1.55 ± 0.25
124 | KNSYNVPEYLRLLLWGNGMC | inactive
125 | TWLSCPTLNHLVTNMPWY | -0.759 ± 0.39

Row | Substance | amyloid nucleation score
126 | LGVTLFFQGDSTTRWDLYPV | inactive
127 | VIRTPILGYWSCIGTFNVFW | 8.167 ± 0.044
128 | RWYSPWSWY | 0.662 ± 0.36
129 | NLEPKNCCCCETFFISYIPT | 1.09 ± 0.35
130 | VLGMYVFDRG | 0.543 ± 0.46
131 | TMLYKWKVGNTFSHVLCLLL | -0.14 ± 1
132 | VYLKIAGTVIDRFTAHVLLM | -1.43 ± 0.75
133 | ANRFSALFGPLLRVAPPKNS | 1.18 ± 0.24
134 | MNIDLHTHPSRSKMLCTTAN | 0.914 ± 0.55
135 | DCHSMQFVVSFNT | -0.705 ± 1.1
136 | KLLKYLSNSFTHRVLCNHDD | inactive
137 | NSIYLCLSAGRFDSMKVNSE | 4.22 ± 0.076
138 | RFNFHTSD | -0.959 ± 1.1
139 | TQRHATENLKFTTWAYKSRE | 0.994 ± 0.16
140 | DFVIESLNMYYWCTRGVVKK | inactive
141 | TMIYMHRLLLNVVDVCCHWF | 0.261 ± 0.74
142 | YDLRVMWRNVSSDFLREKVC | -0.249 ± 1
143 | IGRRLVDFWDVGPFCSHVII | -1.48 ± 1.1
144 | DYLKRDVSTFSLS | -0.021 ± 0.29
145 | MRSYIQFVFCGDCRFFNWVI | 6.298 ± 0.05
146 | SYLSCGQKKHWCWPKVDSFR | -0.444 ± 0.42
147 | HWCLLNSPNYIEMSLNDFLY | 3.62 ± 0.053
148 | HRFSMQALYRNIQEWSCEAW | 2.07 ± 0.12
149 | GCTRE | 1.36 ± 0.53
150 | YYGILEVG | inactive

Row | Substance | amyloid nucleation score
151 | NFYSYIWLLL | 6.38 ± 0.064
152 | YQLNWVKAASCSISLYFTFL | 3.87 ± 0.082
153 | YFRCVASCVT | inactive
154 | FMVDASLNQRMGINQFVCS | -1.34 ± 0.76
155 | SGAVHFQRRASCEGQDMLCW | -0.028 ± 0.26
156 | SPVLIAYQGMAKDWGLVING | 0.139 ± 0.56
157 | FCLDLWCKGFLYYTQCVNGW | 4.08 ± 0.063
158 | SAATPCVY | 0.778 ± 0.25
159 | DKVFDLTQMGFL | inactive
160 | FVDVVPGKSGASET | -0.126 ± 0.49
161 | SLVTSIVQG | -0.434 ± 0.64
162 | GRLNPPLLLRIRSVSYAIPV | 0.783 ± 0.58
163 | CLCGTFVSVSPIGYRGQWGG | -0.467 ± 0.76
164 | ILWKMTFKAPIAKEFPAKWL | 0.065 ± 0.56
165 | VNAVSKGTCLLIWFRDFVAY | -0.113 ± 1.1
166 | ADPVNRKFLHSWDF | 0.112 ± 0.29
167 | GLRFC | inactive
168 | GLPFLVESMSCPCDLDTVGW | 2.27 ± 0.23
169 | RWNGSKLRY | 0.009 ± 0.76
170 | AKDEERISNVVGLDCDLGVL | 0.057 ± 0.42
171 | DPRLSSLSCMGRWHHNYHAS | 0.772 ± 0.5

Reference: the supplement of paper PMC12042874
